Values quoted from earlier work, collected in publication PMC5871712.
Like-named read-outs stand apart in the source and are kept apart here.

Experiments:
[1] = molecular target: CRFR1 (Rattus norvegicus) (UniProt P35353)
[2] = molecular target: CRFR2 (Rattus norvegicus) (UniProt P47866)
[3] = molecular target: CRFR1 (Rattus norvegicus) (UniProt P35353); remark: listed apart in the source
[4] = molecular target: CRFR2 (Rattus norvegicus) (UniProt P47866); remark: listed apart in the source

Sequence of CRFR1 (Rattus norvegicus) (P35353 24-415): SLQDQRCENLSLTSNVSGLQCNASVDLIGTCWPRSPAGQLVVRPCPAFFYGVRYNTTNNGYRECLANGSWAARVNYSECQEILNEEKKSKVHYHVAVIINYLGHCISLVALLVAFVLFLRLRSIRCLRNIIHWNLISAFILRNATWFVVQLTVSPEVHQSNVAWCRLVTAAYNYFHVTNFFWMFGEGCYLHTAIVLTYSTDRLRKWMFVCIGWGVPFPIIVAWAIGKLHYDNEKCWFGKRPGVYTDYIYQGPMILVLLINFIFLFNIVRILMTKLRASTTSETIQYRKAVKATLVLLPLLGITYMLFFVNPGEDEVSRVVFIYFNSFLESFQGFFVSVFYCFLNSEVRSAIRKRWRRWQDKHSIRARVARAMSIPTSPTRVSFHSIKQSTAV
Sequence of Ucn1 (P55090 81-122): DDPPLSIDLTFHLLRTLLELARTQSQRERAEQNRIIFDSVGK
Sequence of CRFR2 (Rattus norvegicus) (P47866 20-411): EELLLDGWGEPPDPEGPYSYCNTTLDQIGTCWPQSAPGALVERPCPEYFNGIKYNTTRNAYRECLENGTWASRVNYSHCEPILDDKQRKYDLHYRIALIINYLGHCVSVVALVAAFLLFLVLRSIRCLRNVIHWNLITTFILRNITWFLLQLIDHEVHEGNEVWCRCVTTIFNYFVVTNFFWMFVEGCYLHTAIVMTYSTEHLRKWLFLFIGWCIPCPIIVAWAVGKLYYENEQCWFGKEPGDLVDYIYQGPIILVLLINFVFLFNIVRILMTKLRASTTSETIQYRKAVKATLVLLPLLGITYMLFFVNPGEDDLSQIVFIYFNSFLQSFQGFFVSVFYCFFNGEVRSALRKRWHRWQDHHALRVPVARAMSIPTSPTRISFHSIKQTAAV
Sequence of CRF (P01143 145-187): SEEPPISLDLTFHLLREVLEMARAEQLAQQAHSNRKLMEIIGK

CRF (from UniProt P01143)
Ki [1]: 1.6 nM | Ki [2]: 42 nM

Ucn1 (from UniProt P55090)
Ki [3]: 0.17 nM | Ki [4]: 0.86 nM
